# Source: patent US20230047413A1 (Janssen / Centocor, published 2023)
# Several values for one entry are separate records, joined by “and”; a condition that tells them apart may be missing. Equal entries are not always repeated.
# Columns and labels:
# [1] = biological target: T1, tau phospho-peptide of the direct ELISA of Example 11; experiment: direct ELISA on plate-coated tau phospho-peptide (10 ng/mL), detection with HRPO-labelled anti-Fab antibody
# T1 construct: also called pT217 peptide; pT212/pT217 peptide
# Protocol: (§1) Binding to tau phospho-peptide was analysed by ELISA where peptide (10 ng/mL) was directly coated to the plate overnight. […] After incubation with antibodies, plates were washed and 50 μL per well of HRPO labelled anti-Fab antibody (Jackson Immunoresearch laboratories) (diluted 1:10000 in blocking buffer). After another washing step detection was performed with “One step” TMB (Thermo Scientific) according to the manufacturers' instructions. Plates were analysed in EnVision® 2102 Multilabel Reader (Perkin Elmer, Waltham, Mass., USA). Binding curves were generated using GraphPad Prism7.0 software.
# [2] = biological target: T1, tau phospho-peptide of the direct ELISA …; experiment: direct ELISA, peptide coated
# Protocol: as §1
# [3] = biological target: T2, PHF-tau (paired helical filament tau isolated from Alzheimer's disease brain) (human, UniProt P10636-8 2-441, limits assumed, hyper-phosphorylated, aggregated; sites not listed for the preparation); experiment: SPR ProteOn, PHF-tau capture-coupled via HT7, bivalent model
# T2 construct: also called enriched PHF-tau; ePHF-tau
# T2 sequence (P10636 other isoform, or with tags, fused parts or gaps limits assumed): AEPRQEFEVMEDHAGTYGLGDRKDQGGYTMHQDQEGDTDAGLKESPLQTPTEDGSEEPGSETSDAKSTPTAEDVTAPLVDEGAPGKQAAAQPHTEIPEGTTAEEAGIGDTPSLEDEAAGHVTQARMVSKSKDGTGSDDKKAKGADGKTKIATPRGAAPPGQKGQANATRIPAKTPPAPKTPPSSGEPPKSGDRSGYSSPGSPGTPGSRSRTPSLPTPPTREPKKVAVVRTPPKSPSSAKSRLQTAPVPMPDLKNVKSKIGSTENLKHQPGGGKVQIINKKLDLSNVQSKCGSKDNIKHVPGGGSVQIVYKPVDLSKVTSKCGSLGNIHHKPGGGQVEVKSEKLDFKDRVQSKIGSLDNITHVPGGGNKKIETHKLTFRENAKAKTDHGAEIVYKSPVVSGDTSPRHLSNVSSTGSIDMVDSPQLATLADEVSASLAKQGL
# Protocol: (§2) Affinity matured monoclonal antibodies were tested for binding to PHF-tau isolated from Alzheimer's disease brain.
# (§3) A GLC sensor chip was covalently immobilized with a mouse anti-tau antibody, HT7 (ThermoFisher, catalog# MN1000) using the vendor recommended protocol for amine-coupling chemistry (˜5000 response units, RU). The coupling buffer was 10 mM, pH 4.5 sodium acetate. PHF-tau was prepared by 2-times centrifugation at 5000×g in 5° C. for 10 min. […] After capture-coupling, the surface was activated and deactivated to generate a homogenous PHF-tau surface for antibody binding studies. The anti-tau antibodies and their Fabs (prepared in running buffer, 0.024-75 nM at 5-fold dilutions) were injected at 50 μL/min over the PHF-tau surface to measure binding. The association and dissociation profiles were monitored for 4 minutes and 2 hours, respectively. After dissociation, the sensor chip was regenerated using multiple injections of 10 mM Glycine pH 2.0 and the running buffer. A reference surface (without any PHF-tau) was used to monitor non-specific binding of the injected mAbs or Fabs. HT7 antibody was used as a positive control. The binding sensorgrams for mAbs were fit using a bivalent binding model where the apparent affinity or avidity-driven binding (KD) was reported as the ratio of off-rate and on-rate (koff/kₒₙ). A 1:1 Langmuir binding model was used for kinetics analysis of Fabs.
# [4] = biological target: T2, PHF-tau (paired helical filament tau …); experiment: as above; remark: listed apart in the source
# Protocol: A subset of HFA-PT3 monoclonal antibodies was tested for binding to PHF-tau isolated from Alzheimer's disease brain. All interactions were studied at 25° C. using PBS pH 7.4, supplemented with 3 mM EDTA, and 0.005% Tween 20 as running or system buffer. HT7 (Pierce, catalog #MN1000), a mouse anti-tau antibody, was used as a positive control.
# The interaction of anti-tau monoclonal antibodies with PHF-tau was analyzed by ProteOn using a biosensor surface prepared by capture-coupling PHF-tau using HT7 as the capture reagent. PHF-tau was prepared by 2-times centrifugation at 5000×g at 5° C. for 10 min; the supernatant from the second centrifugation was then diluted 1/40 in running buffer. To prepare the chip, HT7 was covalently immobilized to the surface of a GLC (ProteOn) sensor chip using the manufacturer's instructions for amine-coupling chemistry (˜5000 response units (RU)). The coupling buffer was 10 mM sodium acetate, pH 4.5. After HT7 immobilization, PHF-tau was injected and captured (˜300 RU) by HT7. After capture, PHF-tau was covalently immobilized to the sensor chip by activation of the chip using the manufacturer's instructions for amine-coupling chemistry. Remaining reactive sites were blocked by the injection of ethanolamine. After preparation and stabilization of the PHF-tau-modified surface and reference surface (containing no antigen), the anti-tau antibodies were diluted in the running buffer and injected in solution (0.12-75 nM in 5-fold dilutions). The association was monitored for 3 minutes (120 μL injected at 40 μL/min). The dissociation was monitored for 15 minutes. Regeneration of the sensor surface was performed using 10 mM Gly pH 2.0. The data for monoclonal antibodies were fit using a bivalent binding model where the apparent affinity (KD) was reported as the ratio of koff/kₒₙ. A Langmuir 1:1 binding model was used for kinetics analysis of Fabs.
# [5] = biological target: T3, Peptide-2 (human, phosphothreonine 212, phosphothreonine 217 (tau 2N4R numbering); short chain biotin (SCBiot) and dPEG4 at the N-terminus; amide at the C-terminus); experiment: SPR ProteOn, mAb captured, peptide as analyte; range of n=2
# T3 construct: also called pT212/pT217-tau peptide (Peptide-2)
# T3 sequence (peptide, as listed by the source): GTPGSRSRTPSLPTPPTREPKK
# Protocol: (§4) A subset of HFA-PT3 monoclonal antibody variants, selected based on biophysical characterization and ELISA binding to PHF, were analyzed by Surface Plasmon Resonance (SPR) with a ProteOn XPR36 for binding to the following phosphopeptides: pT212/pT217-tau peptide (Peptide-2, SEQ ID NO: 48) and pT212-tau peptide (Peptide-8, SEQ ID NO: 54). All experiments were performed at 25° C. using PBST, pH 7.4, (Bio-Rad Cat#176-2720) as both running buffer and sample dilution buffer.
# (§5) Monoclonal antibody/Peptide binding. […] Anti-human IgG was amine-coupled to the chip surface using EDC/NHS, then washed with ethanolamine. Antibodies were diluted to 2 μg/mL in PBST and injected on the surface for 5 min at 30 μL/min to achieve a maximum density of 900-1000 RU. Peptides were injected as analytes at 60 μL/min for 3 min, followed by 5 min dissociation. Peptide-2 was diluted in PBST to generate a three-fold concentration series (0-30 nM) and measured in duplicate. Single measurements of monoclonal antibody binding to Peptide-8 were recorded over the concentration range 0-100 nM.
# (§6) Data were double referenced by subtraction of the interspot response, and the curves generated by the buffer only injection. The chip surface was regenerated with 0.85% phosphoric acid, followed by PBST injection before the next antibody titration injection. Data processing and analysis were performed using instrument software. The data were fit using a simple Langmuir 1:1 binding model.
# [6] = biological target: T3, Peptide-2; experiment: SPR ProteOn, mAb captured, peptide as analyte
# Protocol: as §4, §5, §6
# [7] = biological target: T3, Peptide-2; experiment: SPR ProteOn, mAb captured, peptide as analyte; range of n=2; upper end of n=2 range
# Protocol: as §4, §5, §6
# [8] = biological target: T4, Peptide-8 (human, phosphothreonine 212 (tau 2N4R numbering); SCBiot and dPEG4 at the N-terminus; amide at the C-terminus); experiment: SPR ProteOn, mAb captured by anti-human Fc, peptide as analyte
# T4 construct: also called pT212-tau peptide (Peptide-8)
# Protocol: as §4, §5, §6
# [9] = biological target: T2, PHF-tau (paired helical filament tau …); experiment: SPR ProteOn, PHF-tau on chip
# [10] = biological target: T2, PHF-tau (paired helical filament tau …); experiment: SPR ProteOn, PHF-tau capture-coupled via HT7, 1:1 model
# Protocol: as §2, §3
Kd [4],koff [4],kon [4],Kd [5],koff [5],kon [5],Kd [6],koff [6],kon [6],Kd [8],koff [8],kon [8],Binder,further results
,,,,,,,,,,,,"B333 (antibody, human IgG1, kappa, V domains shown, also called PT1B333) VH: QVQLVESGGGVVQPGRSLRLSCAASGFTFSSYAMSWVRQAPGKGLEWVASISKGGNTYYADSVKGRFTISRDNSKNTLYLQMNSLRAEDTAVYYCARGWGDYGWFAYWGQVTLVTVSS VL: DIQMTQSPSSLSASVGDRVTITCKASQDINRWLNWFQQKPGKAPKSLIYRANRLLDGVPSRFSGSGSGTDFTLTISSLQPEDFATYYCLQYDEFPLTFGQGTKLEIKR",EC50 (read off the curve) [1]: ~0.09 nM; EC50 [2]: 0.164 nM; Kd [3]: 0.0025 nM; koff [3]: 6.8e-06 s⁻¹; kon [3]: 2.68e+06 M⁻¹ s⁻¹
0.032 nM,4.28e-05 s⁻¹,1.32e+06 M⁻¹ s⁻¹,0.126 to 0.217 nM,0.000856 s⁻¹,3.95e+06 M⁻¹ s⁻¹,0.172 nM,0.000901 s⁻¹,5.75e+06 M⁻¹ s⁻¹,32.6 nM,0.0242 s⁻¹,742000 M⁻¹ s⁻¹,"B252 (antibody, human IgG1, V domains shown, Humanized (HFA) PT3 variant, human IgG1/kappa; also called VH93/VL80) VH: QVQLVESGGGLVKPGGSLRLSCAASGFTFSSYAMSWIRQAPGKGLEWVSSISKGGNTYYADSVKGRFTISRDNAKNSLYLQMNSLRAEDTAVYYCARGWGDYGWFAYWGQVTLVTVSS VL: DIVMTQTPLSSPVTLGQPASISCKASQDINRYLNWLQQRPGQPPRLLIYRANRLLDGVPDRFSGSGAGTDFTLKISRVEAEDVGVYYCLQYDEFPLTFGQGTKLEIK",koff [7]: 0.000946 s⁻¹; kon [7]: 7.54e+06 M⁻¹ s⁻¹
0.043 nM,1.11e-05 s⁻¹,255000 M⁻¹ s⁻¹,,,,,,,,,,"B352 (IgG4 mAb) (antibody, V domains shown, IgG4 variant of B296 with the same variable regions; also called B296 as hIgG4) VH: QVQLVESGGGVVQPGRSLRLSCAASGFTFSSYAMSWVRQAPGKGLEWVASISKGGNTYYADSVKGRFTISRDNSKNTLYLQMNSLRAEDTAVYYCARGWGDYGWFAYWGQVTLVTVSS VL: DIQMTQSPSSLSASVGDRVTITCKASQDINRYLNWFQQKPGKAPKSLIYRANRLLDGVPSRFSGSGSGTDFTLTISSLQPEDFATYYCLQYDEFPLTFGQGTKLEIK",fold difference in affinity against B296 [9]: ≤ 2 fold
0.061 nM,4.08e-05 s⁻¹,665000 M⁻¹ s⁻¹,0.36 to 0.529 nM,0.00124 s⁻¹,2.34e+06 M⁻¹ s⁻¹,0.445 nM,0.00132 s⁻¹,3.12e+06 M⁻¹ s⁻¹,86.5 nM,0.0382 s⁻¹,442000 M⁻¹ s⁻¹,"B282 (antibody, human IgG1, V domains shown, Humanized (HFA) PT3 variant, human IgG1/kappa; also called VH93/VL77) VH: QVQLVESGGGLVKPGGSLRLSCAASGFTFSSYAMSWIRQAPGKGLEWVSSISKGGNTYYADSVKGRFTISRDNAKNSLYLQMNSLRAEDTAVYYCARGWGDYGWFAYWGQVTLVTVSS VL: DIQMTQSPSSLSASVGDRVTITCKASQDINRYLNWFQQKPGKAPKSLIYRANRLLDGVPSRFSGSGSGTDFTLTISSLQPEDFATYYCLQYDEFPLTFGQGTKLEIK",koff [7]: 0.0014 s⁻¹; kon [7]: 3.89e+06 M⁻¹ s⁻¹
,,,,,,,,,,,,"B332 (Fab of B809) (Fab, V domains shown) VH: QVQLVESGGGVVQPGRSLRLSCAASGFTFTSYAMSWVRQAPGKGLEWVASITKGGNTYYADSVKGRFTISRDNSKNTLYLQMNSLRAEDTAVYYCARGWGIYGWFAYWGQVTLVTVSS VL: DIQMTQSPSSLSASVGDRVTITCKASQDINRYLNWFQQKPGKAPKSLIYRANRLLDGVPSRFSGSGSGTDFTLTISSLQPEDFATYYCLQYDEFPLTFGQGTKLEIK",Kd [10]: 0.0258 nM; koff [10]: 0.00012 s⁻¹; kon [10]: 4.64e+06 M⁻¹ s⁻¹
0.042 nM,6.03e-05 s⁻¹,1.44e+06 M⁻¹ s⁻¹,,,,,,,,,,"B297 (antibody, human IgG1, V domains shown, Humanized (HFA) PT3 variant, human IgG1/kappa; it is built from VL77 with D56S; also called VH93/VL78) VH: QVQLVESGGGLVKPGGSLRLSCAASGFTFSSYAMSWIRQAPGKGLEWVSSISKGGNTYYADSVKGRFTISRDNAKNSLYLQMNSLRAEDTAVYYCARGWGDYGWFAYWGQVTLVTVSS VL: DIQMTQSPSSLSASVGDRVTITCKASQDINRYLNWFQQKPGKAPKSLIYRANRLLSGVPSRFSGSGSGTDFTLTISSLQPEDFATYYCLQYDEFPLTFGQGTKLEIK",
,,,,,,,,,,,,"B331 (Fab of B333) (Fab, V domains shown) VH: QVQLVESGGGVVQPGRSLRLSCAASGFTFSSYAMSWVRQAPGKGLEWVASISKGGNTYYADSVKGRFTISRDNSKNTLYLQMNSLRAEDTAVYYCARGWGDYGWFAYWGQVTLVTVSS VL: DIQMTQSPSSLSASVGDRVTITCKASQDINRWLNWFQQKPGKAPKSLIYRANRLLDGVPSRFSGSGSGTDFTLTISSLQPEDFATYYCLQYDEFPLTFGQGTKLEIK",Kd [10]: 0.031 nM; koff [10]: 5.31e-05 s⁻¹; kon [10]: 1.72e+06 M⁻¹ s⁻¹
,,,0.0278 to 0.0306 nM,0.000242 s⁻¹ and 0.000408 s⁻¹,8.7e+06 M⁻¹ s⁻¹ and 1e+07 M⁻¹ s⁻¹,0.0292 nM,0.000325 s⁻¹,9.35e+06 M⁻¹ s⁻¹,3.48 nM,0.00802 s⁻¹,2.31e+06 M⁻¹ s⁻¹,"B234 (antibody, human IgG1, V domains shown, Mouse PT3 variable regions (VH10/VL7) with human IgG1/kappa constant region; also called mouse PT3, hIgG1) VH: EVKLVESGGDLVKPGGSLKLSCAASGFTFSSYAMSWVRQNPEKRLEWVASISKGGNTYYPNSVKGRFTISRDNARNILYLQMSSLRSEDTALYYCARGWGDYGWFAYWGQVTLVTVSA VL: DIKMTQSPSSMYASLGERVTITCKASQDINRYLNWFQQKPGKSPKTLIYRANRLLDGVPSRFSGSGSGQDYSLTISSLDYEDMGIYYCLQYDEFPLTFGDGTKLELK",
